The assay concerns the target T1, human calcitonin receptor (human, UniProt P30988 25-474).
T1 construct: whole, on cells; also called hCT-R; hCTR
T1 sequence (looked up): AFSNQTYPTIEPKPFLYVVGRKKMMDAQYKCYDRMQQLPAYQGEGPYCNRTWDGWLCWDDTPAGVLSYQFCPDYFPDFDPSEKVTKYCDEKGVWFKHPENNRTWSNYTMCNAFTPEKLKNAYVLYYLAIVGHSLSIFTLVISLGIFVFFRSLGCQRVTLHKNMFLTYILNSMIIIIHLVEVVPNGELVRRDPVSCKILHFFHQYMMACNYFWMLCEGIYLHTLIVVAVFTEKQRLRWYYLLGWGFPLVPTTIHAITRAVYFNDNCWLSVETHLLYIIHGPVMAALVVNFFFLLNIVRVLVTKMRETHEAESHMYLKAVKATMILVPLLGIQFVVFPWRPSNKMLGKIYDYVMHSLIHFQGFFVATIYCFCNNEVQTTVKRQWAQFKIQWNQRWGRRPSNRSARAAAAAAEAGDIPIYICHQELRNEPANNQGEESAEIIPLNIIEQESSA
Description: whole-cell competition vs 125I-human calcitonin (Assay VIIa). The method, boiled down: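 BHK tk'ts 13 cells stably co-expressing human calcitonin receptor and a CRE-luciferase reporter, seeded overnight at 37 °C. Bound tracer counted by scintillation after cold HBSS washes and NaOH/SDS lysis; IC₅₀ from one-site competition fit taken as receptor affinity.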

Among the data in US20160272683A1 (Novo Nordisk, published 2016) are IC50 values, retold here.

Numbered stars: 1 amine (or outer) side, 2 acyl side, 3 side chain; on linkers, the order of the positions; unused ones are H or OH. * marks the point of attachment. C18 diacid = O=C(O)CCCCCCCCCCCCCCCCC(=O)*; γGlu = O=C(O)[C@H](CCC(=O)[*:2])N[*:1]

B1: [N-terminal(C18 diacid-gGlu), des1, 4Q, 16Q, 30S, 31G]mimylin (peptide)
peptide: {C18 diacid-γGlu}-ASQLSTAALGRLSAQLHELATLPRTETGSGSP-NH2
SMILES: CC(C)C[C@H](NC(=O)[C@H](C)NC(=O)[C@H](C)NC(=O)[C@@H](NC(=O)[C@H](CO)NC(=O)[C@H](CC(C)C)NC(=O)[C@H](CCC(N)=O)NC(=O)[C@H](CO)NC(=O)[C@H](C)NC(=O)CC[C@H](NC(=O)CCCCCCCCCCCCCCCCC(=O)O)C(=O)O)[C@@H](C)O)C(=O)NCC(=O)N[C@@H](CCCNC(=N)N)C(=O)N[C@@H](CC(C)C)C(=O)N[C@@H](CO)C(=O)N[C@@H](C)C(=O)N[C@@H](CCC(N)=O)C(=O)N[C@@H](CC(C)C)C(=O)N[C@@H](Cc1c[nH]cn1)C(=O)N[C@@H](CCC(=O)O)C(=O)N[C@@H](CC(C)C)C(=O)N[C@@H](C)C(=O)N[C@H](C(=O)N[C@@H](CC(C)C)C(=O)N1CCC[C@H]1C(=O)N[C@@H](CCCNC(=N)N)C(=O)N[C@H](C(=O)N[C@@H](CCC(=O)O)C(=O)N[C@H](C(=O)NCC(=O)N[C@@H](CO)C(=O)NCC(=O)N[C@@H](CO)C(=O)N1CCC[C@H]1C(N)=O)[C@@H](C)O)[C@@H](C)O)[C@@H](C)O
notes: also called Ex. #87
The IC50 is the concentration that inhibits the measured activity by half. Take B1: the IC50 was found to be 0.59 nM.

B2: [N-terminal(C18 diacid-gGlu), des1, 5V, 9V, 10V, 30S, 31G]mimylin (peptide)
peptide: {C18 diacid-γGlu}-ASEVSTAVVGRLSAELHELATLPRTETGSGSP-NH2
SMILES: CC(C)C[C@H](NC(=O)[C@H](CCC(=O)O)NC(=O)[C@H](Cc1c[nH]cn1)NC(=O)[C@H](CC(C)C)NC(=O)[C@H](CCC(=O)O)NC(=O)[C@H](C)NC(=O)[C@H](CO)NC(=O)[C@H](CC(C)C)NC(=O)[C@H](CCCNC(=N)N)NC(=O)CNC(=O)[C@@H](NC(=O)[C@@H](NC(=O)[C@H](C)NC(=O)[C@@H](NC(=O)[C@H](CO)NC(=O)[C@@H](NC(=O)[C@H](CCC(=O)O)NC(=O)[C@H](CO)NC(=O)[C@H](C)NC(=O)CC[C@H](NC(=O)CCCCCCCCCCCCCCCCC(=O)O)C(=O)O)C(C)C)[C@@H](C)O)C(C)C)C(C)C)C(=O)N[C@@H](C)C(=O)N[C@H](C(=O)N[C@@H](CC(C)C)C(=O)N1CCC[C@H]1C(=O)N[C@@H](CCCNC(=N)N)C(=O)N[C@H](C(=O)N[C@@H](CCC(=O)O)C(=O)N[C@H](C(=O)NCC(=O)N[C@@H](CO)C(=O)NCC(=O)N[C@@H](CO)C(=O)N1CCC[C@H]1C(N)=O)[C@@H](C)O)[C@@H](C)O)[C@@H](C)O
notes: also called Ex. #96
Turning to B2, the 50% inhibitory concentration (IC50) was 0.767 nM.

B3: [N-terminal(C18 diacid-gGlu), des1, 4Q, 30S, 31G]mimylin (peptide)
peptide: {C18 diacid-γGlu}-ASQLSTAALGRLSAELHELATLPRTETGSGSP-NH2
SMILES: CC(C)C[C@H](NC(=O)[C@H](C)NC(=O)[C@H](C)NC(=O)[C@@H](NC(=O)[C@H](CO)NC(=O)[C@H](CC(C)C)NC(=O)[C@H](CCC(N)=O)NC(=O)[C@H](CO)NC(=O)[C@H](C)NC(=O)CC[C@H](NC(=O)CCCCCCCCCCCCCCCCC(=O)O)C(=O)O)[C@@H](C)O)C(=O)NCC(=O)N[C@@H](CCCNC(=N)N)C(=O)N[C@@H](CC(C)C)C(=O)N[C@@H](CO)C(=O)N[C@@H](C)C(=O)N[C@@H](CCC(=O)O)C(=O)N[C@@H](CC(C)C)C(=O)N[C@@H](Cc1c[nH]cn1)C(=O)N[C@@H](CCC(=O)O)C(=O)N[C@@H](CC(C)C)C(=O)N[C@@H](C)C(=O)N[C@H](C(=O)N[C@@H](CC(C)C)C(=O)N1CCC[C@H]1C(=O)N[C@@H](CCCNC(=N)N)C(=O)N[C@H](C(=O)N[C@@H](CCC(=O)O)C(=O)N[C@H](C(=O)NCC(=O)N[C@@H](CO)C(=O)NCC(=O)N[C@@H](CO)C(=O)N1CCC[C@H]1C(N)=O)[C@@H](C)O)[C@@H](C)O)[C@@H](C)O
notes: also called Ex. #78
With B3, the IC50 turned out to be 0.605 nM.

With {C18 diacid-γGlu}-ASELTTAVLGRLEAELHELTTLPRTETGTGTP-NH2 [[N-terminal(C18 diacid-gGlu), des1, 6T, 9V, 14E, 21T, 30T, 31G, 32T]mimylin], the IC50 came out at 9.15 nM.

In the case of {C18 diacid-γGlu}-ASELTTAVLGRLSAELHELATLPRTETGSGTP-NH2 (also called Ex. #94) [[N-terminal(C18 diacid-gGlu), des1, 6T, 9V, 30S, 31G, 32T]mimylin], the half-inhibitory concentration (IC50) was determined as 0.651 nM.

B4: [N-terminal(C18 diacid-gGlu), des1, 5V, 9V, 10V, 20V, 30S, 31G]mimylin (peptide)
peptide: {C18 diacid-γGlu}-ASEVSTAVVGRLSAELHEVATLPRTETGSGSP-NH2
SMILES: CC(C)C[C@H](NC(=O)[C@H](CCCNC(=N)N)NC(=O)CNC(=O)[C@@H](NC(=O)[C@@H](NC(=O)[C@H](C)NC(=O)[C@@H](NC(=O)[C@H](CO)NC(=O)[C@@H](NC(=O)[C@H](CCC(=O)O)NC(=O)[C@H](CO)NC(=O)[C@H](C)NC(=O)CC[C@H](NC(=O)CCCCCCCCCCCCCCCCC(=O)O)C(=O)O)C(C)C)[C@@H](C)O)C(C)C)C(C)C)C(=O)N[C@@H](CO)C(=O)N[C@@H](C)C(=O)N[C@@H](CCC(=O)O)C(=O)N[C@@H](CC(C)C)C(=O)N[C@@H](Cc1c[nH]cn1)C(=O)N[C@@H](CCC(=O)O)C(=O)N[C@H](C(=O)N[C@@H](C)C(=O)N[C@H](C(=O)N[C@@H](CC(C)C)C(=O)N1CCC[C@H]1C(=O)N[C@@H](CCCNC(=N)N)C(=O)N[C@H](C(=O)N[C@@H](CCC(=O)O)C(=O)N[C@H](C(=O)NCC(=O)N[C@@H](CO)C(=O)NCC(=O)N[C@@H](CO)C(=O)N1CCC[C@H]1C(N)=O)[C@@H](C)O)[C@@H](C)O)[C@@H](C)O)C(C)C
Regarding B4, the IC50 was determined as 1.24 nM.

In the case of {C18 diacid-γGlu}-ASEVSTAVLGRLSAELHELATLPRTETGSGSP-NH2 (also called Ex. #86) [[N-terminal(C18 diacid-gGlu), des1, 5V, 9V, 30S, 31G]mimylin], the IC50 amounted to 0.943 nM.

B5: [N-terminal(C18 diacid-gGlu), des1, 6T, 9V, 14T, 21E, 30T, 31G, 32T]mimylin (peptide)
peptide: {C18 diacid-γGlu}-ASELTTAVLGRLTAELHELETLPRTETGTGTP-NH2
SMILES: CC(C)C[C@H](NC(=O)[C@H](CCC(=O)O)NC(=O)[C@H](C)NC(=O)[C@@H](NC(=O)[C@H](CC(C)C)NC(=O)[C@H](CCCNC(=N)N)NC(=O)CNC(=O)[C@H](CC(C)C)NC(=O)[C@@H](NC(=O)[C@H](C)NC(=O)[C@@H](NC(=O)[C@@H](NC(=O)[C@H](CC(C)C)NC(=O)[C@H](CCC(=O)O)NC(=O)[C@H](CO)NC(=O)[C@H](C)NC(=O)CC[C@H](NC(=O)CCCCCCCCCCCCCCCCC(=O)O)C(=O)O)[C@@H](C)O)[C@@H](C)O)C(C)C)[C@@H](C)O)C(=O)N[C@@H](Cc1c[nH]cn1)C(=O)N[C@@H](CCC(=O)O)C(=O)N[C@@H](CC(C)C)C(=O)N[C@@H](CCC(=O)O)C(=O)N[C@H](C(=O)N[C@@H](CC(C)C)C(=O)N1CCC[C@H]1C(=O)N[C@@H](CCCNC(=N)N)C(=O)N[C@H](C(=O)N[C@@H](CCC(=O)O)C(=O)N[C@H](C(=O)NCC(=O)N[C@H](C(=O)NCC(=O)N[C@H](C(=O)N1CCC[C@H]1C(N)=O)[C@@H](C)O)[C@@H](C)O)[C@@H](C)O)[C@@H](C)O)[C@@H](C)O
On to B5, for which the IC50 stood at 17.3 nM.
